PMC9078787

Target: Fcγ receptor IIIa (UniProt P08637)
UniProt P08637, sequence (P08637 17-208): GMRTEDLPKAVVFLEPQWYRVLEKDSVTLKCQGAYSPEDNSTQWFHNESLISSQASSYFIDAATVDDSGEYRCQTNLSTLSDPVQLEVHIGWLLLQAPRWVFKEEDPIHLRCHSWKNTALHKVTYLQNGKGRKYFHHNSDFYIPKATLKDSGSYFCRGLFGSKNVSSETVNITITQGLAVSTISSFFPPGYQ

ADCC reporter-gene assay (Jurkat-CD16a-FcεRIγ-NFAT-luc effector cells, SK-BR-3 target cells), relative activity by EC50; batch H0323B07 (%afucose 4.2), the reference standard (%relative activity): 100
ADCC reporter-gene assay, relative activity by EC50; batch H0324B01 (%afucose 4.1) (%relative activity): 96
ADCC reporter-gene assay, relative activity by EC50; batch H0337B01 (%afucose 2.6) (%relative activity): 82
ADCC reporter-gene assay, relative activity by EC50; batch H0340B01 (%afucose 2.4) (%relative activity): 73
ADCC reporter-gene assay, relative activity by EC50; batch H0371B01 (%afucose 2.1) (%relative activity): 91
ADCC reporter-gene assay, relative activity by EC50; batch H0382B04 (%afucose 3.7) (%relative activity): 84
ADCC reporter-gene assay, relative activity by EC50; batch H0383B01 (%afucose 1.8) (%relative activity): 78
ADCC reporter-gene assay, relative activity by EC50; batch H0388B01 (%afucose 2.3) (%relative activity): 81
ADCC reporter-gene assay, relative activity by EC50; batch H0389B01 (%afucose 1.9) (%relative activity): 76
ADCC reporter-gene assay, relative activity by EC50; batch H0391B01 (%afucose 2.1) (%relative activity): 71
ADCC reporter-gene assay, relative activity by EC50; batch H0394B01 (%afucose 2.1) (%relative activity): 73
ADCC reporter-gene assay, relative activity by EC50; batch H0395B02 (%afucose 2.1) (%relative activity): 76
ADCC reporter-gene assay, relative activity by EC50; batch H0396B01 (%afucose 2.1) (%relative activity): 71
ADCC reporter-gene assay, relative maximum response; batch H0323B07 (%afucose 4.2), the reference standard (%relative activity): 100
ADCC reporter-gene assay, relative maximum response; batch H0324B01 (%afucose 4.1) (%relative activity): 103
ADCC reporter-gene assay, relative maximum response; batch H0337B01 (%afucose 2.6) (%relative activity): 86
ADCC reporter-gene assay, relative maximum response; batch H0340B01 (%afucose 2.4) (%relative activity): 88
ADCC reporter-gene assay, relative maximum response; batch H0371B01 (%afucose 2.1) (%relative activity): 72
ADCC reporter-gene assay, relative maximum response; batch H0382B04 (%afucose 3.7) (%relative activity): 96
ADCC reporter-gene assay, relative maximum response; batch H0383B01 (%afucose 1.8) (%relative activity): 70
ADCC reporter-gene assay, relative maximum response; batch H0388B01 (%afucose 2.3) (%relative activity): 74
ADCC reporter-gene assay, relative maximum response; batch H0389B01 (%afucose 1.9) (%relative activity): 70
ADCC reporter-gene assay, relative maximum response; batch H0391B01 (%afucose 2.1) (%relative activity): 78
ADCC reporter-gene assay, relative maximum response; batch H0394B01 (%afucose 2.1) (%relative activity): 74
ADCC reporter-gene assay, relative maximum response; batch H0395B02 (%afucose 2.1) (%relative activity): 75
ADCC reporter-gene assay, relative maximum response; batch H0396B01 (%afucose 2.1) (%relative activity): 80
Substance: Pertuzumab (trademark: Perjeta®) (antibody)
